# Laboratory results: IntAct's records for PubMed 24768165
# B1: Protein wntless homolog (Homo sapiens), Q5T9L3 (parent)
# chain: MAGAIIENMSTKKLCIVGGILLVFQIIAFLVGGLIAPGPTTAVSYMSVKCVDARKNHHKTKWFVPWGPNHCDKIRDIEEAIPREIEANDIVFSVHIPLPHMEMSPWFQFMLFILQLDIAFKLNNQIRENAEVSMDVSLAYRDDAFAEWTEMAHERVPRKLKCTFTSPKTPEHEGRYYECDVLPFMEIGSVAHKFYLLNIRLPVNEKKKINVGIGEIKDIRLVGIHQNGGFTKVWFAMKTFLTPSIFIIMVWYWRRITMMSRPPVLLEKVIFALGISMTFINIPVEWFSIGFDWTWMLLFGDIRQGIFYAMLLSFWIIFCGEHMMDQHERNHIAGYWKQVGPIAVGSFCLFIFDMCERGVQLTNPFYSIWTTDIGTELAMAFIIVAGICLCLYFLFLCFMVFQVFRNISGKQSSLPAMSKVRRLHYEGLIFRFKFLMLITLACAAMTVIFFIVSQVTEGHWKWGGVTVQVNSAFFTGIYGMWNLYVFALMFLYAPSHKNYGEDQSNGDLGVHSGEELQLTTTITHVDGPTEIYKLTRKEAQE
# Variants of: B1
# Details: with wnt3a_human WNT3A
row,effect of a mutation on the interaction,Variant
1,with no effect,MAGAIIENMSTKKLCIVGGILLVFQIIAFLVGGLIAPGPTTAVSYMSVKCVDARKNHHKTKWFVPWGPNHCDKIRDIEEAIPREIEANDIVFSVHIPLPHMEMSPWFQFMLFILQLDIAFKLNNQIRENAEVSMDVSLAYRDDAFAEWTEMAHERVPRKLKCTFTSPKTPEHEGRYYECDVLPFMEIGSVAHKFYLLNIRLPVNEKKKINVGIGEIKDIRLVGIHQNGGFTKVWFAMKTFLTPSIFIIMVWYWRRITMMSRPPVLLEKVIFALGISMTFINIPVEWFSIGFDWTWMLLFGDIRQGIFYAMLLSFWIIFCGEHMMDQHERNHIAGYWKQVGPIAVGSFCLFIFDMCERGVQLTNPFYSIWTTDIGTELAMAFIIVAGICLCLYFLFLCFMVFQVFRNISGKQSSLPAMSKVRRLHYEGLIFRFKFLMLITLACAAMTVIFFIVSQVTEGHWKWGGVTVQVNSAFFTGIYGMWNLYVFALMFLYAPSHKNYGEDQSNGDLGVHSGEELQLTTTITHVDGPTEIYKLTRKEAQA [E541A]
2,with no effect,MAGAIIENMSTKKLCIVGGILLVFQIIAFLVGGLIAPGPTTAVSYMSVKCVDARKNHHKTKWFVPWGPNHCDKIRDIEEAIPREIEANDIVFSVHIPLPHMEMSPWFQFMLFILQLDIAFKLNNQIRENAEVSMDVSLAYRDDAFAEWTEMAHERVPRKLKCTFTSPKTPEHEGRYYECDVLPFMEIGSVAHKFYLLNIRLPVNEKKKINVGIGEIKDIRLVGIHQNGGFTKVWFAMKTFLTPSIFIIMVWYWRRITMMSRPPVLLEKVIFALGISMTFINIPVEWFSIGFDWTWMLLFGDIRQGIFYAMLLSFWIIFCGEHMMDQHERNHIAGYWKQVGPIAVGSFCLFIFDMCERGVQLTNPFYSIWTTDIGTELAMAFIIVAGICLCLYFLFLCFMVFQVFRNISGKQSSLPAMSKVRRLHYEGLIFRFKFLMLITLACAAMTVIFFIVSQVTEGHWKWGGVTVQVNSAFFTGIYGMWNLYVFALMFLYAPSHKNYGEDQSNGDLGVHSGEELQLTTTITHVDGPTEIYKLTAKEAQE [R536A]
3,with no effect,MAGAIIENMSTKKLCIVGGILLVFQIIAFLVGGLIAPGPTTAVSYMSVKCVDARKNHHKTKWFVPWGPNHCDKIRDIEEAIPREIEANDIVFSVHIPLPHMEMSPWFQFMLFILQLDIAFKLNNQIRENAEVSMDVSLAYRDDAFAEWTEMAHERVPRKLKCTFTSPKTPEHEGRYYECDVLPFMEIGSVAHKFYLLNIRLPVNEKKKINVGIGEIKDIRLVGIHQNGGFTKVWFAMKTFLTPSIFIIMVWYWRRITMMSRPPVLLEKVIFALGISMTFINIPVEWFSIGFDWTWMLLFGDIRQGIFYAMLLSFWIIFCGEHMMDQHERNHIAGYWKQVGPIAVGSFCLFIFDMCERGVQLTNPFYSIWTTDIGTELAMAFIIVAGICLCLYFLFLCFMVFQVFRNISGKQSSLPAMSKVRRLHYEGLIFRFKFLMLITLACAAMTVIFFIVSQVTEGHWKWGGVTVQVNSAFFTGIYGMWNLYVFALMFLYAPSHKNYGEDQSNGDLGVHSGEELQLTTTITHVDGPTEIYKLTRKEAAE [Q540A]
4,disrupting interaction strength,MAGAIIENMSTKKLCIVGGILLVFQIIAFLVGGLIAPGPTTAVSYMSVKCVDARKNHHKTKWFVPWGPNHCDKIRDIEEAIPREIEANDIVFSVHIPLPHMEMSPWFQFMLFILQLDIAFKLNNQIRENAEVSMDVSLAYRDDAFAEWTEMAHERVPRKLKCTFTSPKTPEHEGRYYECDVLPFMEIGSVAHKFYLLNIRLPVNEKKKINVGIGEIKDIRLVGIHQNGGFTKVWFAMKTFLTPSIFIIMVWYWRRITMMSRPPVLLEKVIFALGISMTFINIPVEWFSIGFDWTWMLLFGDIRQGIFYAMLLSFWIIFCGEHMMDQHERNHIAGYWKQVGPIAVGSFCLFIFDMCERGVQLTNPFYSIWTTDIGTELAMAFIIVAGICLCLYFLFLCFMVFQVFRNISGKQSSLPAMSKVRRLHYEGLIFRFKFLMLITLACAAMTVIFFIVSQVTEGHWKWGGVTVQVNSAFFTGIYGMWNLYVFALMFLYAPSHKNYGEDQSNGDLGVHSGEELQLTTTITHVDGPTEIYKLTRAEAQE [K537A]
5,with no effect,MAGAIIENMSTKKLCIVGGILLVFQIIAFLVGGLIAPGPTTAVSYMSVKCVDARKNHHKTKWFVPWGPNHCDKIRDIEEAIPREIEANDIVFSVHIPLPHMEMSPWFQFMLFILQLDIAFKLNNQIRENAEVSMDVSLAYRDDAFAEWTEMAHERVPRKLKCTFTSPKTPEHEGRYYECDVLPFMEIGSVAHKFYLLNIRLPVNEKKKINVGIGEIKDIRLVGIHQNGGFTKVWFAMKTFLTPSIFIIMVWYWRRITMMSRPPVLLEKVIFALGISMTFINIPVEWFSIGFDWTWMLLFGDIRQGIFYAMLLSFWIIFCGEHMMDQHERNHIAGYWKQVGPIAVGSFCLFIFDMCERGVQLTNPFYSIWTTDIGTELAMAFIIVAGICLCLYFLFLCFMVFQVFRNISGKQSSLPAMSKVRRLHYEGLIFRFKFLMLITLACAAMTVIFFIVSQVTEGHWKWGGVTVQVNSAFFTGIYGMWNLYVFALMFLYAPSHKNYGEDQSNGDLGVHSGEELQLTTTITHVDGPTEIYKLTRKAAQE [E538A]

# Variants of: B1
# Details: with wnt3a_human WNT3A
# Remark: another data set of the same source
row,effect of a mutation on the interaction,Variant
1,with no effect,MAGAIIENMSTKKLCIVGGILLVFQIIAFLVGGLIAPGPTTAVSYMSVKCVDARKNHHKTKWFVPWGPNHCDKIRDIEEAIPREIEANDIVFSVHIPLPHMEMSPWFQFMLFILQLDIAFKLNNQIRENAEVSMDVSLAYRDDAFAEWTEMAHERVPRKLKCTFTSPKTPEHEGRYYECDVLPFMEIGSVAHKFYLLNIRLPVNEKKKINVGIGEIKDIRLVGIHQNGGFTKVWFAMKTFLTPSIFIIMVWYWRRITMMSRPPVLLEKVIFALGISMTFINIPVEWFSIGFDWTWMLLFGDIRQGIFYAMLLSFWIIFCGEHMMDQHERNHIAGYWKQVGPIAVGSFCLFIFDMCERGVQLTNPFYSIWTTDIGTELAMAFIIVAGICLCLYFLFLCFMVFQVFRNISGKQSSLPAMSKVRRLHAEGLIFRFKFLMLITLACAAMTVIFFIVSQVTEGHWKWGGVTVQVNSAFFTGIYGMWNLYVFALMFLYAPSHKNYGEDQSNGDLGVHSGEELQLTTTITHVDGPTEIYKLTRKEAQE [Y425A]
